Target: the molecule itself
Assay: cryo-EM structure; blot-and-plunge, dGTPase 3 mg/mL on UltrAuFoil R1.2/1.3 Au300; single-particle analysis, D3 symmetry

B1: Escherichia coli dGTP Triphosphohydrolase (enzyme, UniProt P15723 1-505, looked up)
chain: MAQIDFRKKINWHRRYRSPQGVKTEHEILRIFESDRGRIINSPAIRRLQQKTQVFPLERNAAVRTRLTHSMEVQQVGRYIAKEILSRLKELKLLEAYGLDELTGPFESIVEMSCLMHDIGNPPFGHFGEAAINDWFRQRLHPEDAESQPLTDDRCSVAALRLRDGEEPLNELRRKIRQDLCHFEGNAQGIRLVHTLMRMNLTWAQVGGILKYTRPAWWRGETPETHHYLMKKPGYYLSEEAYIARLRKELNLALYSRFPLTWIMEAADDISYCVADLEDAVEKRIFTVEQLYHHLHEAWGQHEKGSLFSLVVENAWEKSRSNSLSRSTEDQFFMYLRVNTLNKLVPYAAQRFIDNLPAIFAGTFNHALLEDASECSDLLKLYKNVAVKHVFSHPDVERLELQGYRVISGLLEIYRPLLSLSLSDFTELVEKERVKRFPIESRLFHKLSTRHRLAYVEAVSKLPSDSPEFPLWEYYYRCRLLQDYISGMTDLYAWDEYRRLMAVEQ
notes: also called dGTPase; E. coli dGTPase
binding result: binds

— article doi:10.1101/2025.07.24.666634 (bioRxiv, 2025)
